Assay: soluble fraction after stress (log2 fold change); higher = more stays soluble; pooled small domains, quantitative proteomics
Conditions: stress: pH 4
In short: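 High-throughput quantitative proteomics was run on pooled custom libraries of small protein domains following pH 4 stress. Fold changes are on a log2 scale; higher values mean more of a domain remained soluble. The fold change in soluble amount is taken as a measure of aggregation propensity.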

Sequence | soluble fraction (log2)
HMATTMSADWRPSEDAVGILVNAEINARFIEDAIPEFVLYWRERGAVHGAWNSKFIEHIRRQWAKFSAS | -1.31
HMLSLSDIINDVMERLTREKNLTFDELLGEKRERRRIVYTFLALLELIRLKMIKAYQTAAFGVIRIFPR | -1.15
HMSDDLLTGLDAYSRGDWTTATASFERVLTTADPNNRTEALYWLVMSETSAQNYQRALNYANTFL | -0.887
HMTPELTAEEREVLSLLGDEPRTLAELIAASGRDYAALSVLLMGLELSQAVRQLPGNRYERF | -1.36
HMGLLEMPSERERQVLVLIAEGLSNKEIAARLYLTEGTVKNHAHSLYAKLNVTTRTLAIARARQLGI | -0.731
HMTNYGTVRPGARGQAVTALQQALIRHGYKLTADGIYGRATRQAVRAFQQKHKLKVDGIVGSKTWALLLAD | -0.0192
HMSMPDERMLTSWMMARVKAAGKTMTRDAWNEFFERSNDSMDHMDMEMEKLLSYVYDKDGITLEDVEA | -0.381
HMSRMLTVKQREVFDLAMREGYWETPRRITLTMLASLLSVSKSTLSVQLHKIEGTVLSSFSDEVRRRS | -0.011
HMVVVVELTENEKAVQDVLTKNEGSLEISDLKTKLELSGKQWDKALKGLAKHGITQVAKVDGVVTVSL | -1.4
HMNVWGLSERELEATRLLIEGFSSKEASARMGISPSTVRSLWGRARAKMGVDSIEDARELVA | -0.273
HMRKIGDVLRLHAGGLSKRRIAVSLNIGRTAVGDYISRARRAGLGWPLPEDLSEEALERLLFPPP | 0.151
HMAKNDSGLNNHTFNTIRDALQKALTDGPQEAKKLTENLPFPADKIITVIRYLADHDEHFSLEDGIISLT | -0.0785
HMSHPNAPLTPEGRRRLAVLIVEDGWTIRRAAERFQVSPATASKWARRYRAGESLTDRSSRP | 0.0223
HMDPFVILGISKDSSQSEILEAYKTKRAYYQEHVFDEGDQGAQAARMLGQLDDAYQQAMELSHE | 0.139
HMDQEDAYMQVRQVFDTLLVSELSKRIFAWRFFEGKSFAEWPGAESQKFLYDTFNRILLIISAKIRRKNA | -0.522
HMSLAISGRNQLHGIIEEVRSDGLLSQIYLRVGDQVLTAVITRDAVAELKLKRGDTAVAIMKSTEVMIARE | 0.0191
HMDIANEQEQIFITAMRNDDFNPILELKMKGYQPSKNVLKSLQPDVSSTTFIAAAKIFQMEGVL | -1.31
HMEQRREEFILLAKELLEKELRKQNLEVHENLKPDVLNDVAKRLGMVSMDDLLAAVGDGKITPGTVVSKIV | -0.389
HMSTSERLKQVMEVKGFNLKTFSEQADIPYRTLQNYILTNREPSAESLAKLHSQLGINLNWLMSGKGEMF | 0.109

Sequence | soluble fraction (log2)
HMDPEEQIQSREIWEAVERALDGMQEKGRRVVIALLEGQTQLEVSRAAGISQPLISYYLKSFRTKVRTELG | -0.269
HMTSTSVKYVNSSSGLNVRKGPSTSYDKVTTLVNGTKVTVISTNNGWSKITSGSITGYVSSQYLSSSS | -0.284
HMKHVENLSDEKTIQAIQENPYMQYLLGLSKFTEKPVFVPELFVLIRKRLDQDFFNMLTLILAEADG | -0.778
HMELRSPMPGLIIEIPVSKGDIIKKDQSLIILEAMKMENVLTSPINGKIADIKVNVQDTVEKNNLLITFEN | -1.23
HMNKTQLQIEDEVLKPLIAEIFSKSKGRFGARKIRSKLMGLGYTASERRILRLMKELGLSSAG | ≥ 0.43
HMERLKYSQVVDLFKGEQVKSFVLDESNQLKMELQDGSTVSYKLRSFEQFYLDLSDTVKEQKESGIITDYD | -1.72
HMNTGIPHQEVIKKLYSFAEGGDWKGLKEELNRIKEYTLFYNSVKELADSFEINRLIEKLKTYIF | -0.0132
HMEISTEVPLRGGTISEEALEALNRLPGVTASNIDGKSISVDVADNAELRVSDINQVLAVHSPDTRV | -0.707
HMGKASNEVYEVISSKIRTGEWAPGYKLPSEPTLAEEFGVSRATVREALQELISRGRIKREQGRGTYVLH | -0.118
HMRWGDPLTVKVPSFIGQTKDDIAKQHYPFRIEWHGEGAKIGSQLPEVDSVIKQDGTIHLYLV | -0.0995
HMPGLDTTILSDILSLKKELPSRSAAKILIMLILAKRIEEGSLNLRTINRILNQYGYTRESLL | 0.327
HMASPRVWKDASSGRTLTGEFVELTKDAVKVRRANGDVVSLPLSRLTEEDITFAKGASETGGA | 0.0565
HMLSKEERRSQLLDLGVRLLSTRSLDELSIDLLAEEAGISRGLLYHYFGNKHDFHEAVVRRAADDLI | -1.12
HMTEEPISDGIKKLVEEWENIEGNLIMIFHGIQKHYGYVPRNVAKYVSEAIDVPLTRIYEILTFYNYFTM | -1.43
HMKLASIGDNIHTLRKNKGLTQSQLAGKLGVNVDTISNYEKGVSTPDFDIVEKLVNIFNVDAHSLLFK | -0.351
HMGKIINMSKVKQVLRLHTQGVSNRRIALDLGLYKGTVNSYIRKIKDHGYDIAEVLKLDDPVLESKLFA | 0.268
HMIISPKKLEYRQRIINALGDRKMSLNELSKAMGYKGITTKLSFTVDDMIKSGVIEKVMVGAYAKLHIP | 0.22
HMKEYPEVITTSRLNVRTGPGTGYQRLGTLDQNLRVLVLTRQQGWAQIRGMLNGETVIGWVNDYYLQAID | -0.259
HMVMETLAERINTALQTKGLSVNALARRVGVSYPAMRKITKGETLNPKFLFEIAEALGVSVEWLKTGEGSP | 0.0978

Reference: the domain aggregation screens of Martell et al. (2025)
